Experimental data taken from patent publication US20220242962A1 (APTEVO RESEARCH AND DEVELOPMENT, published 2022).
Read-outs that look alike come from different tables or passages of the source. Each block holds one binder with its values, some of them ahead of it.

Key:
Full-length Human OX40 [1] = target: T1, Full-length Human OX40 (human, UniProt P43489 29-277); experiment: cell-based or functional assay
T1 sequence: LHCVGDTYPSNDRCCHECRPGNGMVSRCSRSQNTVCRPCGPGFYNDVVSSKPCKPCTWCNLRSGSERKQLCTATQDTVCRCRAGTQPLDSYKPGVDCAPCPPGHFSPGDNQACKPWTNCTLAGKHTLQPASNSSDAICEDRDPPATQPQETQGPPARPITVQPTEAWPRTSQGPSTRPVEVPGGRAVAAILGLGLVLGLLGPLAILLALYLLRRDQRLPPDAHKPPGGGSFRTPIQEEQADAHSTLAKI

Full-length Human 4-1BB [2] = target: T2, Full-length Human 4-1BB (human, UniProt Q07011 24-255); experiment: cell-based or functional assay
Full-length Human OX40 [3] = target: T1, Full-length Human OX40; experiment: flow cytometry, CHO cells expressing human OX40
Protocol: (§1) FIGS. 12A-12D show the binding of anti-4-1BB x anti-OX40 constructs, with additional humanization in 4-1BB and altered orientations of binding domains, human (12A) or cynomolgus (12C) 4-1BB-expressing Jurkat cells or human (12B) or cynomolgus (12D) OX40-expressing CHOK1SV cells. Serial dilutions of ADAPTIR™ constructs were incubated with transfected cells and subsequently labelled with a fluorescently-conjugated goat-a-human Fc secondary antibody. […] (See Example 19.)
(§2) Binding studies were performed using the flow cytometry-based staining procedures described above.

Human OX40 ECD-AFH [4] = target: T3, Human OX40 ECD-AFH (human); experiment: SPR, construct captured, monomeric ECD as analyte
T3 construct: ECD'; entry includes the C-terminal tags; also called OXF003; Human OX40 ECD-avi-flag-his
T3 chain: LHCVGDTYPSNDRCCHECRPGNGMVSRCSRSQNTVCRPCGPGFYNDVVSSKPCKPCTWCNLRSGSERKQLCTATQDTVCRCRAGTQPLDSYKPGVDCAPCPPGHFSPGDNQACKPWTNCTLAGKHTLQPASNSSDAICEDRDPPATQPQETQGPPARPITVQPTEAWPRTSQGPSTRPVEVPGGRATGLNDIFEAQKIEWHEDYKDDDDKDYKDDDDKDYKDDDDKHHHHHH
Protocol: (§3) Mouse anti-human IgG (GE, BR-1008-39) at 25 μg/ml in 10 mM sodium acetate pH 5.0 was immobilized at a density of ˜10,000 response units (RU) onto each flow cell of a CM5 research-grade sensor chip (GE) by standard amine coupling chemistry. Each binding protein at approximately 100 nM in HBS-EP+ with 0.2% BSA buffer was captured in a flow cell with the immobilized anti-human IgG at a flow rate of 10 μL/min for 20 seconds, leaving one flow cell surface unmodified as the reference. Using a single-cycle kinetics mode, five different concentrations of ECD were sequentially injected through each flow cell at 30 μL/min for 300 seconds followed by a 600 second dissociation period. Regeneration was achieved by injection of 3 M MgCl₂ at a flow rate of 30 μL/min for 30 seconds followed by HBS-EP+ with 0.2% BSA buffer stabilization for 1 min.
(§4) Sensorgrams obtained from kinetic SPR measurements were analyzed by the double subtraction method. The signal from the reference flow cell was subtracted from the analyte binding response obtained from flow cells with immobilized or captured ligands. Buffer reference responses were then averaged from multiple injections. The averaged buffer reference responses were then subtracted from analyte binding responses, and the final double-referenced data were analyzed with Biacore T200 Evaluation software (2.0, GE), globally fitting data to derive kinetic parameters. All sensorgrams were fitted using a simple one-to-one binding model.
(§5) Protein was produced by transient expression, purified by ProA chromatography and prep SEC.

Human 4-1BB ECD-AFH [5] = target: T4, Human 4-1BB ECD-AFH (human); experiment: SPR, construct captured, monomeric ECD as analyte
T4 construct: entry includes the tags; also called FOB003; HUMAN CD137 ECD-AVI-FLAG-HIS
T4 sequence (chain, as listed by the source limits assumed): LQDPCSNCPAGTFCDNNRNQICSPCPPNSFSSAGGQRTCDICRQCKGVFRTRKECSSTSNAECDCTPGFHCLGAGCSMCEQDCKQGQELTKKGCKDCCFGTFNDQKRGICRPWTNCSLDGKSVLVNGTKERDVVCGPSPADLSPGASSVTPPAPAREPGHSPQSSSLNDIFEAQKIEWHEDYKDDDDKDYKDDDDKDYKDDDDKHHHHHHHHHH
Protocol: as §3, §4, §5

Full-length Human 4-1BB [6] = target: T2, Full-length Human 4-1BB; experiment: flow cytometry, Jurkat cells expressing human 4-1BB
Protocol: as §1, §2

Full-length Cyno 4-1BB [7] = target: T5, Full-length Cyno 4-1BB (cynomolgus monkey, UniProt Q07011 24-255 (human entry)); experiment: flow cytometry on Jurkat cells transfected with cynomolgus 4-1BB, goat anti-human Fc secondary antibody, MFI (Mean)
T5 construct: on Jurkat or CHO cells; also called FOB006; cynomolgus 4-1BB
T5 chain: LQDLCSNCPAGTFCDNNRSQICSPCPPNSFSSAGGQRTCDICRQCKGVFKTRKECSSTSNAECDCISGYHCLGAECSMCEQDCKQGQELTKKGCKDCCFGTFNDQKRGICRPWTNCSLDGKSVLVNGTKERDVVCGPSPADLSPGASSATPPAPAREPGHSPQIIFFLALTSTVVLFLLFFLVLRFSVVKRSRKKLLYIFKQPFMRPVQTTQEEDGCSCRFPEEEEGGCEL
Protocol: as §1, §2

Full-length Cyno OX40 [8] = target: T6, Full-length Cyno OX40 (cynomolgus monkey, UniProt P43489 29-277 (human entry)); experiment: flow cytometry on CHOK1SV cells transfected with cynomolgus OX40, goat anti-human Fc secondary antibody, MFI (Mean)
T6 construct: on CHO-K1SV cells; also called OXF004; cynomolgus OX40
T6 chain: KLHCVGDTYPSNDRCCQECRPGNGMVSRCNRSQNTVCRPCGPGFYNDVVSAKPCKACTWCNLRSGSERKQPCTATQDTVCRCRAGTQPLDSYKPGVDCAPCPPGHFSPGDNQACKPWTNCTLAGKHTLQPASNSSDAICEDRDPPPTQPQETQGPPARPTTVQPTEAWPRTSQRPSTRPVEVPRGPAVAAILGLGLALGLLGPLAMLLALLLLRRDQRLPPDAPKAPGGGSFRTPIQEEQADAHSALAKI
Protocol: as §1, §2

Full-length Human OX40 [9] = target: T1, Full-length Human OX40; experiment: cell-based or functional assay; remark: listed apart in the source
Full-length Human 4-1BB [10] = target: T2, Full-length Human 4-1BB; experiment: cell-based or functional assay; remark: listed apart in the source
Full-length Human OX40 [11] = target: T1, Full-length Human OX40; experiment: flow cytometry, CHO cells expressing human OX40; remark: listed apart in the source
Full-length Human 4-1BB [12] = target: T2, Full-length Human 4-1BB; experiment: flow cytometry, Jurkat cells expressing human 4-1BB; remark: listed apart in the source
Protocol: (§6) Serial dilutions of ADAPTIR™ constructs were incubated with cells transfected with human or cynomolgus ECD and subsequently labelled with a fluorescently-conjugated goat-α-human Fc secondary antibody. […] (See Example 16.)

Human OX40 ECD-AFH [13] = target: T3, Human OX40 ECD-AFH; experiment: SPR (T200), construct captured, monomeric ECD as analyte
Protocol: as §3, §4

Human 4-1BB ECD-AFH [14] = target: T4, Human 4-1BB ECD-AFH; experiment: as above
Protocol: as §3, §4

Full-length Cyno 4-1BB [15] = target: T5, Full-length Cyno 4-1BB; experiment: flow cytometry on Jurkat cells transfected with cynomolgus 4-1BB, goat anti-human Fc secondary antibody, MFI (Mean)
Protocol: as §6

Full-length Cyno OX40 [16] = target: T6, Full-length Cyno OX40; experiment: flow cytometry on CHOK1SV cells transfected with cynomolgus OX40, goat anti-human Fc secondary antibody, MFI (Mean)
Protocol: as §6

- OX40 Reporter Assay EC50 (Full-length Human OX40 [1]): 13 pM
- OX40 Reporter Assay Max induction (Full-length Human OX40 [1]): 2.07e+06
- 4-1BB Reporter Assay EC50 (Full-length Human 4-1BB [2]): 13 pM
- 4-1BB Reporter Assay Max induction (Full-length Human 4-1BB [2]): 6.61e+06
- EC50 (Full-length Human OX40 [3]): 320 pM
- max MFI (Full-length Human OX40 [3]): 10300 MFI
- Kd (Human OX40 ECD-AFH [4]): 800 pM
- koff (Human OX40 ECD-AFH [4]): 0.00039 s⁻¹
- kon (Human OX40 ECD-AFH [4]): 480000 M⁻¹ s⁻¹
- Kd (Human 4-1BB ECD-AFH [5]): 18000 pM
- koff (Human 4-1BB ECD-AFH [5]): 0.0055 s⁻¹
- kon (Human 4-1BB ECD-AFH [5]): 310000 M⁻¹ s⁻¹
- EC50 (Full-length Human 4-1BB [6]): 290 pM
- max MFI (Full-length Human 4-1BB [6]): 4770 MFI
- EC50 (read off the curve) (Full-length Cyno 4-1BB [7]): ~300 pM
- EC50 (read off the curve) (Full-length Cyno OX40 [8]): ~800 pM
B1: FXX01108 (bispecific antibody)
chain: EIVMTQSPATLSLSPGERATLSCRASQSVSSYLNWYQQKPGQAPRLLIYYASRRHTGIPARFSGSGSGTDFTLTISSLQPEDFAVYYCQQGYNLPYTFGQGTKVEIKGGGGSGGGGSGGGGSGGGGSEVQLVQSGAEVKKPGASVKVSCKASGYTFTSYWMNWVRQAPGQGLEWMGNIYPSGGSTNYAQKFQGRVTMTVDTSTSTVYMELSSLRSEDTAVYYCASFSDGYYAYAMDYWGQGTLVTVEPKSSDKTHTCPPCPAPPAAAPSVFLFPPKPKDTLMISRTPEVTCVVVDVSHEDPEVKFNWYVDGVEVHNAKTKPREEQYNSTYRVVSVLTVLHQDWLNGKEYKCAVSNKALPAPIEKTISKAKGQPREPQVYTLPPSRDELTKNQVSLTCLVKGFYPSDIAVEWESNGQPENNYKTTPPVLDSDGSFFLYSKLTVDKSRWQQGNVFSCSVMHEALHNHYTQKSLSLSPGGGGSPSSYVLTQPPSVSVAPGKTARITCGGNNIGSKSVNWFQQKPGQAPVLVVYDDSGRPSGIPERFSGSTSGNTATLTISRVEAGDEADYYCQVWDSSSDHVVFGGGTKLTVLGGGGSGGGGSGGGGSGGGGSQVQLVESGGGVVQPGRSLRLSCAASGFTLSYYGMHWVRQAPGKGLEWVAAISHDGSDKYYADSVKGRFTISRDNSKNRLYLQMNSLRAEDTAVYYCSNDQFDPWGQGTLVTVSSR
notes: ADAPTIR anti-4-1BB (LH) x anti-OX40 with Q17K and T86R

- OX40 Reporter Assay EC50 (Full-length Human OX40 [9]): 10 pM
- OX40 Reporter Assay Max induction (Full-length Human OX40 [9]): 1.97e+06
- 4-1BB Reporter Assay EC50 (Full-length Human 4-1BB [10]): 14 pM
- 4-1BB Reporter Assay Max induction (Full-length Human 4-1BB [10]): 6.58e+06
- EC50 (Full-length Human OX40 [11]): 350 pM
- Max MFI (Full-length Human OX40 [11]): 10500 MFI
- EC50 (Full-length Human 4-1BB [12]): 320 pM
- Max MFI (Full-length Human 4-1BB [12]): 4940 MFI
- Kd (Human OX40 ECD-AFH [13]): 400 pM
- koff (Human OX40 ECD-AFH [13]): 0.00016 s⁻¹
- kon (Human OX40 ECD-AFH [13]): 400000 M⁻¹ s⁻¹
- Kd (Human 4-1BB ECD-AFH [14]): 7000 pM
- koff (Human 4-1BB ECD-AFH [14]): 0.002 s⁻¹
- kon (Human 4-1BB ECD-AFH [14]): 280000 M⁻¹ s⁻¹
- EC50 (read off the curve) (Full-length Cyno 4-1BB [15]): ~600 pM
- EC50 (read off the curve) (Full-length Cyno OX40 [16]): ~2000 pM
B2: FXX01047 (bispecific antibody)
chain: EVQLVQSGAEVKKPGASVKVSCKASGYTFTSYWMNWVRQAPGQGLEWMGNIYPGSSTTNYAQKFQGRVTMTVDTSTSTVYMELSSLRSEDTAVYYCASFSDGYYAYAMDYWGQGTLVTVSSGGGGSGGGGSGGGGSGGGGSEIVMTQSPATLSLSPGERATLSCRASQDISNYLNWYQQKPGQAVRLLIYYTSRLHSGIPARFSGSGSGTDYTLTISSLQPEDFAVYFCQQGYTLPYTFGQGTKVEIKEPKSSDKTHTCPPCPAPPAAAPSVFLFPPKPKDTLMISRTPEVTCVVVDVSHEDPEVKFNWYVDGVEVHNAKTKPREEQYNSTYRVVSVLTVLHQDWLNGKEYKCAVSNKALPAPIEKTISKAKGQPREPQVYTLPPSRDELTKNQVSLTCLVKGFYPSDIAVEWESNGQPENNYKTTPPVLDSDGSFFLYSKLTVDKSRWQQGNVFSCSVMHEALHNHYTQKSLSLSPGGGGSPSSYVLTQPPSVSVAPGQTARITCGGNNIGSKSVNWFQQKPGQAPVLVVYDDSGRPSGIPERFSGSTSGNTATLTISRVEAGDEADYYCQVWDSSSDHVVFGGGTKLTVLGGGGSGGGGSGGGGSGGGGSQVQLVESGGGVVQPGRSLRLSCAASGFTLSYYGMHWVRQAPGKGLEWVAAISHDGSDKYYADSVKGRFTISRDNSKNTLYLQMNSLRAEDTAVYYCSNDQFDPWGQGTLVTVSSR
notes: ADAPTIR scFv-Fc-scFv, anti-4-1BB N-terminal, anti-OX40 C-terminal; also called FX01047
